Results taken from the nanobody polyreactivity screen of Harvey et al. (2022).

assay: yeast display, Sf9 membrane polyspecificity reagent, FACS + sequencing; frameworks hold sequencing errors
Procedure, shortened: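 Genes from sorted yeast were amplified by colony PCR, read by MiSeq 2 × 250 sequencing and filtered on CDR length. These cells carried a synthetic nanobody library in Saccharomyces cerevisiae BJ5465 and were sorted by FACS into low and high (top ~1%) gates on anti-HA and streptavidin fluorescence. Polyreactivity is labelled according to the gate of origin.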

Sequence | polyreactivity (PSR sort gate)
QVQLVESGGGLVQAGGSLRLSCAASGFTFCKYTMGWYRQAPGKERELVAAITNSGTSTYYADSVKGRFTISRDNAKNTVYLQMNSLKPEDTAVYYCARDNEPDYYSYPYDYWGQGTQVTVSS | low polyreactivity
QVQLVESGGGLVQAGGSLRLSCAASGFTFCQYVMGWYRQAPGKERELVAAINWSGGSTYYADSVKGRFTISRDNAKNTVYLQMNSLKPEDTAVYYCNAVKAPYLRYDYWGQGTQVTVSS | high polyreactivity
QVQLVESGGGLVQAGGSLRLSCAASGFTFDDYAMGWYRQAPGKERELVATITNSDSSTYYADSVKGRFTISRDNAKNTVYLQMNSLKPEDTAVYYCNADGEGADSDYDYWGQGTQVTVSS | low polyreactivity
QVQLVESGGGLVQAGGSLRLSCAASGFTFDDYTMGWYRHAPGKERELVAAITSSGDSTYYADSVKGRFTISRDNAKNTVYLQMNSLKPEDTAVYYCAAQSYPFDRDYWGQGTQVTVSS | high polyreactivity
QVQLVESGGGLVQAGGSLRLSCAASGFTFDGYAMGWYRQAPGKERELVAAISDSGDSTYYADSVKGRFTISRDNAKNTVYLQMNSLKPEDTAVYYCAAGLGYYWSDYFAYDYWGQGTQVTVSS | low polyreactivity
QVQLVESGGGLVQAGGSLRLSCAASGFTFDHNDMGWYRQAPGKEMELVAAITWSAGSTYYADSVKGRFTISRDNAKNTVYLEMNSLKPEDTAVYYCAADAWYYSIYRGGDYWGQGTQVTVSS | low polyreactivity
QVQLVESGGGLVQAGGSLRLSCAASGFTFDKNVMGWYRQAPGKERELVAAISVRGGTTYYADSVKGRFTISRDNAKNTVYLQMNSLKPEDTAVYYCAARAYGPPARYDSWGQGTQVTVSS | low polyreactivity
QVQLVESGGGLVQAGGSLRLSCAASGFTFDKYAMGWYRQAPGKERELVAAITQNGGSTNYADSVKGRFTISRDNAKNTVYLQMNSLKPEDTAVYYCATRSSYLSYVSRMYYWGQGTQVTVSS | high polyreactivity
QVQLVESGGGLVQAGGSLRLSCAASGFTFDPYAMGWYRQAPGKERELVAAISFSGGSTSYADSVKGRFTISRDNAKNTVYLHMNSLKLEDTAVYYCNAEYDWWSYWYDYWGQGTQVTVSS | high polyreactivity
QVQLVESGGGLVQAGGSLRLSCAASGFTFDQYAMGRNRQAPGKERELVAVISSGGSTYYADSVKGRFTFSRDNAKNTVYLQMNSLKQEDTAVYYCNRDRQRRYDYWGQGTQVTLSS | high polyreactivity
QVQLVESGGGLVQAGGSLRLSCAASGFTFDQYTMGWYRQAPGKERELVAAISSSGGSTYYADSVKGRFTISRDNAKNTVYLQMNSLKPEDTAVYYCAARFLLTQRVSHDYRGQGTQVTVSS | low polyreactivity
QVQLVESGGGLVQAGGSLRLSCAASGFTFDRNAMGWYRQAPGKERGFVAAISSSGGRTYYADSVKGRFTISRDNAKITVYLEMNSLKQEDTALYYCAADFVSRPSAYGSSYYWGQGTQVTVSS | high polyreactivity
QVQLVESGGGLVQAGGSLRLSCAASGFTFDSNAMGWYIQAPGKERELVAAISTGGSTYYADSVKGRFTISRDNAKNTVYLQMNSLKPEDTAVYYCARDPPYPDTWYGYWGQGTQVTVSS | low polyreactivity
QVQLVESGGGLVQAGGSLRLSCAASGFTFDSNAMGWYRQAPGKERELVAAISTGGSTYYADSVKGRFTISRDNAKNTVYLQMNSLKPEDTAVYYCARDPPYPDTWYGYWGQGTQVTVSS | low polyreactivity
QVQLVESGGGLVQAGGSLRLSCAASGFTFDSYAMGWYRQAPGKERELVAAITSDGSTYYADSVKGRFTISRDNAKNTVYLQMNSLKPEDTAVYYCAADGISLYATAYDYWGQGTQVTVSS | low polyreactivity
QVQLVESGGGLVQAGGSLRLSCAASGFTFDSYAMGWYRQAPGKERELVAAITWSGGSTYYADSVKGRFTISRDNAKNTVYLQMMSLKPEDTAVYYCNVYRYDGDYWGQGTQVTVSS | high polyreactivity
QVQLVESGGGLVQAGGSLRLSCAASGFTFDSYAMGWYRQAPGKERELVADITWDGGSTYYADSVKGRFTISRDNAKNTVYLQMKSLKPEDTAVYYCAADFGTFSIDVYSWMDYWGQGTQATVSS | low polyreactivity
QVQLVESGGGLVQAGGSLRLSCAASGFTFDVYTMGWYRQAPGKEREFVAAISGSGGSTYYADSVKGRFTISRDNAKNTVYLQMNSLKPEDTAVYYCNAGLSRVSHRHLSHSLQGYDYWGQGTQVTVSS | low polyreactivity
QVQLVESGGGLVQAGGSLRLSCAASGFTFDYYAMGWYRQAPGKDRELVAAITSGSITYYADSVKGRFTISRDNAKNTVYLQMNSLKPEDTAVYYCARYGYRRVGSRWAEFDYWGQGTQVTVSS | high polyreactivity
QVQLVESGGGLVQAGGSLRLSCAASGFTFDYYAMGWYRQAPGKERELVAAITSGSITYYADSVKGRFTISRDNAKNTVYLQMNSLKPEDTAVYYCARYGYRRVGSRWAEFDYWGQGTQVTVSS | high polyreactivity
QVQLVESGGGLVQAGGSLRLSCAASGFTFDYYVMGWYIQAPGKERELVAAITFSATSTYYADSVKGRYTISRDNAKNTVYLQMNSLNPEDTAVYYCAAVICNWQYQYYYWGQGTKVTVSS | low polyreactivity
QVQLVESGGGLVQAGGSLRLSCAASGFTFEFYVMGGYSPAPGKERELVAAISTTGGSTYYADSVKGRFTISRDNAKNTVYLQMNSLKPEDTAVYYCAAEYYLWWKSHLWEYGYWGQGTQVTVSS | high polyreactivity

Sequence | polyreactivity (PSR sort gate)
QVQLVESGGGLVQAGGSLRLSCAASGFTFEGYAMGWYRQAPGKERELVAAISDNGGRTYYADSVKGRFTISRDNAKNTVYLQMHPLTPEETEVYYCNARPAYSGPDYDYYHGRRYDYWGQGTQVTVSS | low polyreactivity
QVQLVESGGGLVQAGGSLRLSCAASGFTFEIYAMGWYSQAPGKVRELVAAISKSGGSTYYADSVKGRFTISRDNAKKRVYLQMNSLKPEDSSVYSCAARYKALYDYWGQGTQVTVSS | high polyreactivity
QVQLVESGGGLVQAGGSLRLSCAASGFTFEKYVMGWYRQAPGKEREFVAAITRSGGRTYYADSVKGRFTISRDNAKNTVYLQMNSLKPEDSAVYYCAAAFSRSDTGGGSWGQGTEVTVSS | high polyreactivity
QVQLVESGGGLVQAGGSLRLSCAASGFTFERNTMGWYRQAPGKERELVSTITRRGTSTYYADSVKGRFTISRDNAKNTVYLQMNSLKPEDTAVYYCAVYGYRTKYGYWGQGTQVTVSS | high polyreactivity
QVQLVESGGGLVQAGGSLRLSCAASGFTFERYAMGWYRPAPGKDRELVAAITGSGGSTYYADSVKGRFTIARDNATNTVYLQMNSLKPEDTAFYYCARDSSLFRLRDYWGQGTQVTVSS | low polyreactivity
QVQLVESGGGLVQAGGSLRLSCAASGFTFERYTMGWYRQAPGKEREMVATISRRSGRTSYADSVKGRFTISRDYAKNTVYLQMNRLQPEDTAVYYCAVDDAYPDRYDYWGQGTQVTVSS | high polyreactivity
QVQLVESGGGLVQAGGSLRLSCAASGFTFETYVMGWYRQAPGKERELVAAISRRGGSTYYADSVKGRFTISRDNAKNTVYLQMNSLKPEDTAVYYCGKDGGWSRLHYNYWGQGTQVTVSS | high polyreactivity
QVQLVESGGGLVQAGGSLRLSCAASGFTFEWNTMGWYRPAPGKERELVARINWSSGRTYYADSVKGRFTISRDNAKNTVYLQMNSLKPEDTAVYYCAADTYDWRTGYKDDYWGQGTQVTVSS | high polyreactivity
QVQLVESGGGLVQAGGSLRLSCAASGFTFEYNDMGWYRQAPGIERELVDSISYDSDSTYYADSVKGRFTISRDNAKNTVYLQMNRLKPEDTAVYYCNAGSSYHEYGYWGQGTQVTVSS | high polyreactivity
QVQLVESGGGLVQAGGSLRLSCAASGFTFEYNDMGWYRQAPGKERELVASISYDSDSTYYAVSVKGRFTISRDNAKNTVYLQMNSLKPEDTAVYYCNAGSSYHEYGYWGQGTQVTVSS | high polyreactivity
QVQLVESGGGLVQAGGSLRLSCAASGFTFEYYAMGWYRQAPGKERELVAVITWNGGSTYYADSVKGRFTISRDNAKNTVYLQMNSLKPEDTAVYYCNVVPYLYNGGSHRYNYWGQGTQVTVSS | high polyreactivity
QVQLVESGGGLVQAGGSLRLSCAASGFTFFDNAMGWYRQAPGKERELVAAITWSDGSTYYADSVKGRFTISRDNAKNTVYLQMNSLKAEDTAVYYCAVGFISYSYSNYYDVWYEYYYWGQGTQVTVSS | low polyreactivity
QVQLVESGGGLVQAGGSLRLSCAASGFTFFDYVMGWYRQAPGKERELVAAISSGGSTYYADSVKGRFTISRDNAKNTVYLQMNSLKPEDTAVYYCATDNGYPDDATDGYYSLYDYWGQGTQVTVSS | low polyreactivity
QVQLVESGGGLVQAGGSLRLSCAASGFTFFEDNAMGWYRQAPGKERELVAAITSGGSTNYADSVKGRFTISRDNAKNTVYLQMISLKPEDTAVYYCAKDRVPLKTRFYYFPWGYDYWGQGTQVTVSS | low polyreactivity
QVQLVESGGGLVQAGGSLRLSCAASGFTFFGDYAMGWYRQAPGKERELVAAIDWSGGTTYYADSVKGRFTISRDNAKNTVYLQMNSLKPEDTAVYYCAKDYYSDGIYYEYWGQGTQVTVSS | high polyreactivity
QVQLVESGGGLVQAGGSLRLSCAASGFTFFHYAMGWYRQAPGKERELVAAINTRGSRTYYADSVKGRFTISRDNAKNTVYLQMNSLKPEDTAVYYCAADSVQVYAWQYYYWGQGTQVTVSS | high polyreactivity
QVQLVESGGGLVQAGGSLRLSCAASGFTFFHYDMGWYRQAPGKERELVAAINTRGSRTYYADSVKGRFTISRDNAKNTVYLQMNSLKPEDTAGYYSAADSVQVYAGQYYYWGQGTQVTVSS | high polyreactivity
QVQLVESGGGLVQAGGSLRLSCAASGFTFFSNAMGWYRQAPGKERELVAAITSSGGSTYADSVKGRFTISRDNAKNTVYLQMNSLKPEDTAVYYCAADALAPPGGFKEYDYWGQGTQVTVSS | low polyreactivity
QVQLVESGGGLVQAGGSLRLSCAASGFTFFTYTMGWYRQAPGKERELVAAISRDGARTNYADSVKGRFTISRDNAKNTVYLQMNSLKPEDTAVYYCAAPTSHLYTEKYDYWGQGTQVTVSS | high polyreactivity
QVQLVESGGGLVQAGGSLRLSCAASGFTFFVYAMGWYRQAPGKERELVATINWSGASTYYADSVKGRFTISRDNAKNTVYLQMKSLKPEDTAVYYCAKDGHYPLVYLAFDYWGQGTQVTVSS | low polyreactivity
QVQLVESGGGLVQAGGSLRLSCAASGFTFFVYAMGWYRQAPGKERELVAVITSGGTTNYADSVKGRFTISRDNAKNTVYLQMNSLKPEDTAVYYCNARGEKRGYYYWGQGTQVTVSS | high polyreactivity
